Source: patent US11078259B2, “Methods and compositions for promoting thermogenic potential” (Joslin Diabetes Center, Inc., priority 2015, dated 2021)

Experiments:
[1] = system: hWAT-SVF and hBAT-SVF progenitors; assay: OCR (Seahorse) in adipocytes from BMP7 pre-treated progenitors; assay type: cell-based, human; details: hWAT-SVF from both subjects and hBAT-SVF from Subject 2; 3.3 nM BMP7 pre-exposure 6 days
Method: (§1) FIG. 6B depicts OCR assayed using the Seahorse extracellular flux analyzer in differentiated hWA and hBA from Sub1 and Sub2 that were pre-treated with 3.3 nM BMP7 or vehicle (Veh) for 6 days and then differentiation into mature adipocytes. Equal numbers of progenitors were plated and differentiated. Quantification of OCR in the absence (Basal Res.) and presence of oligomycin (Proton Leak) or FCCP (Max. Res.) are shown. Data are presented as mean±s.e.m. (n=10; two-tailed Student's t-test; *P<0.05, **P<0.01, ***P<0.001). A representative experiment from a total of two independent studies is shown. Data are represented in the same order as appeared in the legend. FIGS. 6C and 6D depict measurement of glucose uptake using ^3H 2-Deoxy-Glucose in differentiated hWA and hBA from Sub1 and Sub2 that were pre-treated with 3.3 nM BMP7 or vehicle (Veh) for 6 days and then differentiation into mature adipocytes. […]
To assess mitochondrial respiration, a Seahorse Extracellular Flux Analyzer (Seahorse Bioscience Inc., North Billerica, Mass.) was used to quantify oxygen consumption rates (OCR) of differentiated human white and brown adipocytes. […] After adipogenic induction for 12 days, OCR was analyzed. […] All data were average of four-time points with 10 wells per time point by quantified in bar plots, and error bars are standard error of the mean (s.e.m.). […]

[2] = system: hWAT-SVF and hBAT-SVF progenitors; assay: Glucose uptake, fatty acid uptake and oxidation in adipocytes from BMP7 pre-treated progenitors; assay type: cell-based, human; details: hWAT-SVF from both subjects and hBAT-SVF from Subject 2; 3.3 nM BMP7 pre-exposure 6 days
Method: as §1, with “legend.” for “legend. FIGS. 6C and 6D depict measurement of glucose uptake using ^3H 2-Deoxy-Glucose in differentiated hWA and hBA from Sub1 and Sub2 that were pre-treated with 3.3 nM BMP7 or vehicle (Veh) for 6 days and then differentiation into mature adipocytes.”
After serum starvation in DMEM/H medium containing 1% of BSA for 2-3 h, differentiated human white and brown adipocytes were washed with HEPES buffer. […] Glucose transport was determined by the addition of 2-deoxy-[^3H]glucose (0.1 mM, 0.5 μCi/mL; PerkinElmer Life and Analytical Science, Waltham, Mass.). […] Cells were then lysed in 0.1% SDS, and glucose uptake was assessed in 4 mL of scintillant using Beckman LS6500 scintillation counter (Beckman Coulter, Indianapolis Ind.). Nonspecific 2-deoxy-[^3H]glucose uptake was measured in the presence of cytochalasin B (20 μM) and was subtracted from the total uptake to get specific glucose uptake. Results were expressed as the mean±s.e.m. of the indicated number of experiments. […]

B1: BMP7: Recombinant human BMP7, an inducer of brown adipogenesis (protein, UniProt P18075 293-431, looked up)
Bone morphogenetic protein 7: STGSKQRSQNRSKTPKNQEALRMANVAENSSSDQRQACKKHELYVSFRDLGWQDWIIAPEGYAAYYCEGECAFPLNSYMNATNHAIVQTLVHFINPETVPKPCCAPTQLNAISVLYFDDSSNVILKKYRNMVVRACGCH
For B1, the “mitochondrial activity in mature adipocytes” value [1] was “enhanced” and the “fuel utilization in mature adipocytes” value [2] was “enhanced”.
